What was measured:
Settings in all cases: G4
Somatostatin = target: T1, Somatostatin (Homo sapiens, UniProt P61278 P61278:103-116); experiment: graphene FET current change <1.3% at up to 1 uM vs 8.5% for insulin; normalized response <0.192
T1 chain: AGCKNFFWKTFTSC
Protocol: (§1) To examine the specificity of the nanosensor to insulin over other related analogues that might interfere with the detection of insulin, glucagon and somatostatin, which were secreted by the pancreatic islet alpha and delta cells, respectively, were evaluated as negative control analytes. This is because glucagon [molecular weight (MW): 3.5 kD, PI: 6.2], promoting […] by the liver and together with somatostatin (MW: 1.63 kD, PI: 5.6) regulating the secretion of insulin, share similar physical properties with insulin, which can affect the sensing performance. The functionalized graphene nanosensor was first exposed to somatostatin solutions prior to the introduction of insulin. The change in Ids, denoted as ΔIds, was recorded throughout the experiment and compared as the response of the aptameric nanosensor to the given solutions. To minimize errors caused by device-to-device nonuniformity, the time-resolved selective response as the ratio of ΔIds to ΔIds,max (the maximum value of ΔIds) was calculated:
where Ids,PBS is the Ids measured in fresh PBS buffer. […] On the contrary, the calculated ΔIds/ΔIds,max value increased and reached 1.0 at […] insulin with stepwise increments in the insulin concentration (FIG. 101A).
Additionally, a similar real-time monitoring control experiment was conducted with glucagon (FIG. 107). […]

Glucagon = Glucagon (Homo sapiens, UniProt P01275 P01275:53-81); experiment: graphene FET current change <1.3% at up to 1 uM vs 8.5% for insulin
Glucagon, sequence (P01275 53-81, one chain of several): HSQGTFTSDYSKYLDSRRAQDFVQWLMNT
Protocol: as §1
Additionally, a similar real-time monitoring control experiment was conducted with glucagon (FIG. 107). […] Here, ΔIds,S(C)=Ids,S(C)−Ids,PBS, where Ids,S(C) is the Ids measured at the binding equilibrium for given solutions (insulin/glucagon/somatostatin) at representative tested concentrations.

Insulin = Insulin (Homo sapiens, UniProt P01308;P01308 P01308:25-54,P01308:90-110); experiment: graphene FET, PBS pH 7.4, Hill-Langmuir fit of Dirac voltage shift
Insulin, sequence (P01308 25-54, chain 1 of 2): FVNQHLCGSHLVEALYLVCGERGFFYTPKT
Insulin, sequence (P01308 90-110, chain 2 of 2): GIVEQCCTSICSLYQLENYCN
Protocol: The nanosensor insulin measuring capabilities were subsequently tested in PBS buffer. Insulin solutions of increasing concentrations from 100 pM to […] were sequentially introduced to the PDMS chamber of the nanosensor. The binding of insulin to the IGA3 aptamer was allowed to reach equilibrium before the replenishment of sample solutions.
The binding of insulin and aptamer was allowed to reach equilibrium for 10 min before the replenishment of higher concentration insulin solution. Thus, the dipping time of graphene in solutions was increased with the ongoing experiment. The slight decrease in the minimum of Ids (Ids,min,) in the transfer characteristic curve, observed in FIG. 99A was considered as a result of the increase in the ionic strength caused by the evaporation of PBS buffer (150 mM NaCl) with increasing dipping time.
Further, the equilibrium dissociation constant (KD) for the IGA3 aptamer and insulin with different VDirac at corresponding insulin concentrations was evaluated using the aptamer-functionalized GFETs. […] The change in VDirac, denoted as ΔVDirac, is plotted as a function of insulin concentrations with error bars obtained from three different devices (FIG. 99B).

GGTGGTGGGGGGGGTTGGTAGGGTGTCTTC (ssDNA, 5'-NH2 (coupled to PASE on graphene)) [IGA3 insulin aptamer] was tested, and the binding result (Somatostatin) was “no binding”, the binding result (Glucagon) was “no binding” and the Kd (Insulin) was 0.035 µM.

— US20180368743, “GRAPHENE-BASED NANOSENSOR FOR IDENTIFYING TARGET ANALYTES” (THE TRUSTEES OF COLUMBIA UNIVERSITY IN THE CITY OF NEW NEW …, published 2018)
